No end group written: not given here.
Assays:
α-adrenergic = details: topical nasal application; cited from earlier work
[1] = tested on: human brain muscarinic cholinergic receptor; details: in vitro; cited from earlier work
[2] = Data set 1: tissue and blood distribution of intranasal HC with and without 1% PHE (pretreatment intervals 0, 5, 15 min merged); format: in vivo, rats
From the text: We investigated whether incorporation of a vasoconstrictor (phenylephrine, PHE) in the nasal formulation enhances drug targeting of an intranasally applied neuropeptide (hypocretin-1, HC) to the brain in rodents. Several factors may effect CNS concentrations of HC following intranasal administration of HC in the presence of PHE, including the dose of vasoconstrictor, the time after intranasal delivery, and the pretreatment time interval. PHE is commonly used at a dose of 1% for nasal decongestion and topical nasal application of PHE results in a rapid onset of action and duration of action of approximately 4 hours. Ideally, it would be preferred to have a nasal formulation where the vasoconstrictor and CNS drug are administered together, without the need for pretreatment of the nasal cavity with vasoconstrictor. Clearly this would be more convenient than having to intranasally pretreat, wait a period of time (5 min or 15 min), and then intranasally administer the CNS drug with additional vasoconstrictor. However, waiting a short period of time may be a necessary step to allow the vasoconstrictor to activate adrenergic receptors located on blood vessels in the nasal cavity to result in constriction. Thus, in these experiments, three pretreatment time intervals were investigated: 0 min (or no pretreatment), 5 min, 15 min, to determine the time interval necessary to wait to allow the intranasally applied 1% PHE to take effect. Anesthetized rats were sacrificed at 30 minutes following intranasal delivery of HC and 1% PHE, since typically high brain concentrations are achieved within 25-30 minutes of intranasal administration.
One-way ANOVAs comparing tissue concentrations in the three groups from the PHE-treated animals were also performed. […] Thus, the therapeutic compound(s) and vasoconstrictor(s) may be combined in a pharmaceutical composition while retaining full therapeutic benefit of the present invention. […] As a result, data obtained from control animals with different pretreatment time intervals were merged and data obtained from PHE-treated animals with different pretreatment time intervals were merged. Statistical comparisons were made between tissue concentrations in control animals (n=28) and PHE-treated animals (n=23).

[3] = parameters: species or system rats; details: rat, in vivo
From the text: Incorporation of at least one vasoconstrictor in a nasal formulation including at least one therapeutic compound, i.e., a pharmaceutical composition, enhances intranasal therapeutic compounds targeting of therapeutics to, inter alia, the CNS, meninges and lymphatics by reducing absorption into the blood, increasing concentrations in, inter alia, the CNS, or both. […] Inclusion of a vasoconstrictor in the intranasal formulation (IN PHE) further enhances brain targeting of HC compared to the intravenous delivery from the previous study (Table 2, IN PHE vs. IV). In addition, compared to intranasal delivery with no additives, intranasal administration of HC in combination with 1% PHE further enhances intranasal drug targeting to the brain, with increased targeting to the olfactory bulbs (7-fold increase), anterior olfactory nucleus (2-fold increase), frontal cortex (2-fold increase), hippocampus (2-fold increase), and hypothalamus (2-fold increase) (Table 2, IN PHE vs. IN). 1% PHE also enhances intranasal drug targeting to the superficial and deep cervical lymph nodes (5 to 6-fold) and to the meninges surrounding the brain (2-fold). Therefore, inclusion of a vasoconstrictor in an intranasal formulation is a novel strategy to further enhance intranasal drug targeting to the brain and lymphatics compared to other routes of administration. […]

[4] = rat, in vivo
Procedure: Both vasoconstricting agents are α-adrenergic agonists with short duration of action (4-6 hours). The therapeutic compound selected was hypocretin-1 (HC, MW 3500), a peptide with therapeutic potential for treating narcolepsy. In addition to determining the effect of vasoconstrictors on the intranasal delivery of hypocretin-1 to the CNS, peripheral tissues and blood, vasoconstrictor effects on the drug targeting index (DTI) were also examined.
Thirty minutes following onset of intranasal delivery, rats were perfused with saline and fixed with 4% paraformaldehyde. […] The DTI for each tissue was calculated by dividing the ratio of mean tissue concentration to blood area under the curve (AUC) of the vasoconstrictor group by the ratio of mean tissue concentration to blood AUC of the control group. DTI>1.0 indicated a drug targeting advantage with the vasoconstrictor.

[5] = tested on: saliva and plasma cortisol response; details: general intranasal insulin 40 IU, 26 normal adult men, placebo controlled; cited from earlier work
[6] = cited from earlier work

For `CNC[C@H](O)c1cccc(O)c1` [PHE, phenylephrine], the Duration of action (α-adrenergic) is given as “approximately 4 hours”.

For `O=P(O)(O)OP(=O)(O)O` [pyrophosphate], the “Concentration protecting the receptor from inactivation by oxidants such as heme” value [1] is given as 1-5 μm.

In the case of “hypocretin-1 (QPLPDCCRQKTCSCRLYELLHGAGNHAAGILTL; ends and bridges not checked; also: 125I label, site not given here; UniProt O43612 34-66, looked up) [HC]”, the “Concentration of HC, Trigeminal Nerve” value ([2]; intranasal HC + 1% PHE, rats, 30 min) was 1.71 ± 0.15 nM, the “Concentration of HC, Medulla” value ([2]; intranasal HC control (no PHE), rats, 30 min) was 1.26 ± 0.22 nM and the “HC targeting (tissue-to-blood ratio), 1% PHE vs control, trigeminal nerve” value ([2]; rat, in vivo) was “not significantly different”. For the same compound, the “HC targeting (tissue-to-blood ratio), increase with 1% PHE vs control, anterior olfactory nucleus” value ([2]; rat, in vivo) was 2.4 fold, the “HC targeting (tissue-to-blood ratio), increase with 1% PHE vs control, cerebellum” value ([2]; rat, in vivo) was 1.7 fold and the “HC targeting (tissue-to-blood ratio), increase with 1% PHE vs control, deep cervical lymph nodes” value ([2]; rat, in vivo) was 5.7 fold. For the same compound, the “HC targeting (tissue-to-blood ratio), increase with 1% PHE vs control, dorsal meninges” value ([2]; rat, in vivo) was 1.7 fold, the “HC targeting (tissue-to-blood ratio), increase with 1% PHE vs control, frontal cortex” value ([2]; rat, in vivo) was 2.3 fold and the “HC targeting (tissue-to-blood ratio), increase with 1% PHE vs control, medulla” value ([2]; rat, in vivo) was 1.7 fold. For the same compound, the “HC targeting (tissue-to-blood ratio), increase with 1% PHE vs control, midbrain” value ([2]; rat, in vivo) was 1.7 fold, the “HC targeting (tissue-to-blood ratio), increase with 1% PHE vs control, olfactory bulbs” value ([2]; rat, in vivo) was 6.8 fold and the “HC targeting (tissue-to-blood ratio), increase with 1% PHE vs control, superficial cervical lymph nodes” value ([2]; rat, in vivo) was 5.7 fold. The “HC targeting (tissue-to-blood ratio), increase with 1% PHE vs control, ventral meninges” value ([2]; rat, in vivo) was 2.9 fold, the “HC drug targeting, enhancement to the meninges surrounding the brain” value [3] was 2 fold and the “Respiration during intranasal delivery” value [4] was “did not lead to any improvement in respiration”. The “Respiratory distress in animals during intranasal delivery” value [4] was “fewer incidences of respiratory distress”.

For insulin, the “Saliva and plasma cortisol response to the Trier Social Stress Test” value [5] is listed as “significantly diminished”, the “Memory, attention and functioning in Alzheimer's patients” value ([6]; intranasal insulin over a 21 day period) is listed as “improve memory, attention and functioning” and the “Blood levels of insulin or glucose” value ([6]; intranasal insulin treatment, healthy adults) is listed as “no change”. The “Memory in healthy adults” value ([6]; intranasal insulin treatment) was “improves memory” and the “Memory in patients with Alzheimer's disease” value ([6]; intranasal insulin, twenty minutes after a single treatment) was “improve memory”.

— patent US9707274B2, “Methods for preventing and treating post-traumatic stress disorder (PTSD)” (priority 2007, dated 2017)
